In PMC12628175:

Target: Recombinant human G-CSFR (granulocyte-colony-stimulating factor receptor) (human) (UniProt Q99062)
Chain of UniProt Q99062 (Q99062 25-333): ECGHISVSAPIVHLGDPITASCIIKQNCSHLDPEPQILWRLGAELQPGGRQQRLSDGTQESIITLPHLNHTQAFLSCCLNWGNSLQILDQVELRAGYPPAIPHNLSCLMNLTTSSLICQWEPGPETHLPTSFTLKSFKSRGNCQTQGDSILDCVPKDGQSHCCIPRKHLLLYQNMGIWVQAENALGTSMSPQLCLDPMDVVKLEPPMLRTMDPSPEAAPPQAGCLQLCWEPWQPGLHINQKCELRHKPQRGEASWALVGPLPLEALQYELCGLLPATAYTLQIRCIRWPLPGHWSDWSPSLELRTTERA

Substance: Recombinant human granulocyte colony-stimulating factor (rhG-CSF) (from UniProt P09919 31-207) (ligand)
- EC50 (pM) of proliferation of murine NFS-60 cells (48 h, CellTiter-Blue; receptor of the cells); rhG-CSF self-made from E. coli: 2.6 pM
